This is an account of results in patent US20250388623A1 (CHENGDU BRILLIANT INSPIRATION BIOTHERAPEUTICS, published 2025).

The target in experiment [1] is T1, TSP-1 protein (novoprotein, Catalog No. CU45) (UniProt P07996 19-1170, limits assumed).
T1 construct: Bought protein coated on the ELISA plate; also called Thrombospondin-1
Put plainly: competition ELISA, TSP-1 coated, CD36-Fc 0.25 µg/mL as competitor, peptide 100 µM. As to the method: (§1) ELISA assay was performed to detect the ability of the polypeptides to block the binding of TSP-1 protein to CD36, a TSP-1 receptor protein. TSP-1 protein (novoprotein, Catalog No. CU45) was diluted to 2 μg/mL using 100 mM carbonate buffer and added to sample wells (100 μL/well) of a 96-well ELISA plate (Thermo, Catalog No. 437111), and incubated overnight at 4° C.; after washing the plate twice using 1×PBST wash solution, 200 μL of 1.5% BSA (Sigma, Catalog No. B2064) was added to each well, and incubated at 37° C. for 2 h; after washing the plate 3 times using 1×PBST wash solution, the analytes were added (100 μL/well, 3 replicate wells; for the control group, 0.25 μg/mL of Fc-tagged CD36 protein (R&D Systems, Catalog No. 1955-CD-050); and for the polypeptide-treated groups, a mixture containing Fc-tagged CD36 protein and polypeptide at final concentrations of 0.25 μg/mL and 100 μM, respectively), and incubated at 37° C. for 3 h. After washing the plate 5 times using 1×PBST wash solution, a 1:500 dilution solution of FITC-labeled anti-Fc-tagged antibody (Beyotime, Catalog No. A0556) was added, and incubated for 1 h at 37° C.; after washing the plate 5 times using 1×PBST wash solution, a multifunctional ELISA instrument (TECAN, model: Infinite 200 Pro) was used to detect the intensity of FITC fluorescence signal in each sample well. The ability of the polypeptides to block CD36 binding to TSP-1 protein (Table 2-1) was assessed by calculating the ratio of the fluorescence signal from the polypeptide-treated groups to that of the control group, allowing for the determination of the blocking rate of the polypeptides in inhibiting CD36 binding to TSP-1 protein, i.e., (fluorescence signal of the control group-fluorescence signal of the polypeptide-treated group)/fluorescence signal of the control group×100%. Based on the blocking rate results obtained at the single concentration and on the polypeptide molecule properties, the preferred polypeptide molecules were assayed for concentration dependence (at 0 μM, 0.5 μM, 1 μM, 5 μM, 10 μM, and 100 μM), and IC₅₀ values of the polypeptides for blocking CD36 binding to TSP-1 protein were determined to further assess the abilities of the preferred polypeptide molecules to block the binding of CD36 to TSP-1 (Table 2-2).

The target in experiment [2] is TSP-1 protein expressed by PMA-differentiated THP-1 macrophage-like cells (UniProt P07996 19-1170). The experiment can be described thus: cell-based or functional assay.
Sequence of TSP-1 protein expressed by PMA-differentiated THP-1 macrophage-like cells (P07996 19-1170 limits assumed): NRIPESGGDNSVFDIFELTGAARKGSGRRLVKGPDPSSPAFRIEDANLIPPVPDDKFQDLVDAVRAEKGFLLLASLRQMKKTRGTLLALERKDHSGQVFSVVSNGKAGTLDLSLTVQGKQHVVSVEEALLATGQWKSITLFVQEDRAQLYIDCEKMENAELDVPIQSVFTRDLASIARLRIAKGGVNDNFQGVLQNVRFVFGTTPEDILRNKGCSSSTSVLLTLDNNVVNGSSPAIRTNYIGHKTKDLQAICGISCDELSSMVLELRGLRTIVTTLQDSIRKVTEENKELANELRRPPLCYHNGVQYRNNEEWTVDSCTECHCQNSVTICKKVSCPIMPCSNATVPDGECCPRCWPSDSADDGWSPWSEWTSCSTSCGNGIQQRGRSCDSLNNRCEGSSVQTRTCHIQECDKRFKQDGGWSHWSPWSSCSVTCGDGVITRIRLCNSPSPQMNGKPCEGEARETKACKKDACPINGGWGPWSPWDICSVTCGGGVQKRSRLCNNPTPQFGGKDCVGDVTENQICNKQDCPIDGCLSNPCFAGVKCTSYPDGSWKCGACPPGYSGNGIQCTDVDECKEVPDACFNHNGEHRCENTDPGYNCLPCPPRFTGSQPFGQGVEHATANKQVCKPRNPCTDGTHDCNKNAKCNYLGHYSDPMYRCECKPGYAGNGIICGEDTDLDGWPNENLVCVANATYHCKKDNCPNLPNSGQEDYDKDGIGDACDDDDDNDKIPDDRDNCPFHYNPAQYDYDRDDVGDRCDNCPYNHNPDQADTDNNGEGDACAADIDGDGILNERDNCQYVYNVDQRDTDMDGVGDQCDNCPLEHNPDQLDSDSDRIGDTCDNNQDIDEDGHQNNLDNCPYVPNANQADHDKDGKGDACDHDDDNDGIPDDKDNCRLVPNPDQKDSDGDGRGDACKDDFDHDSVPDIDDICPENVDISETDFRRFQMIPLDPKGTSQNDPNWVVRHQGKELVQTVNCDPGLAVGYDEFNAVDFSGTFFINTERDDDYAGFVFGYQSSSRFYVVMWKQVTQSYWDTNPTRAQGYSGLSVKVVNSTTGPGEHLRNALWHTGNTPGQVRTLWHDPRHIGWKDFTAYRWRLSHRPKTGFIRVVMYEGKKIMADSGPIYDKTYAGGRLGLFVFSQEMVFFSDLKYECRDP
The target of experiment [3] is T1, TSP-1 protein (novoprotein, Catalog No. …). The experiment can be described thus: competition ELISA, TSP-1 coated, CD36-Fc as competitor, peptide 0-100 µM. The protocol:
as §1

Bridge positions count the residues as written; N and C are the ends. Ends that are not written are not given here.

T1 sequence (P07996 19-1170 limits assumed): as above

With Ac-TQDAEDPTA-NH2 [SEQ ID NO: 22], the “Blocking rate (Mean, %)” value in experiment [1] turned out to be 40.9%. In experiment [2], the “Mean (relative fluorescence intensity), 293-TGFβ Res reporter cells” value (shortened to “Mean (relative fluorescence intensity)”) is 0.74 ratio to negative control. Besides, the IC50 in experiment [3] was 7.2 µM.

For the molecule Ac-TQDAEDNTVSFLQ-NH2 [SEQ ID NO: 36], the “Blocking rate (Mean, %)” value in experiment [1] came to 23.1%. Also, the “Mean (relative fluorescence intensity)” value in experiment [2] is 0.83 ratio to negative control. In experiment [3], this molecule registered an IC50 of 4.85 µM.

B1: SEQ ID NO: 40 (peptide)
peptide: TQDAEDN
modifications: Head-to-tail cyclization
notes: cyclic peptide; also called TQDAEDN; cyclo[Thr-Gln-Asp-Ala-Glu-Asp-Asn]
Regarding B1, the “Blocking rate (Mean, %)” value in experiment [1] was 37.5%. For the same molecule, the “Mean (relative fluorescence intensity)” value in experiment [2] is 0.77 ratio to negative control. The molecule also displayed a half-inhibitory concentration (IC50) in experiment [3] of 7.7 µM.

B2: SEQ ID NO: 45 (peptide)
peptide: QDAEDNT
modifications: Head-to-tail cyclization
notes: cyclic peptide; also called QDAEDNT; cyclo[Gln-Asp-Ala-Glu-Asp-Asn-Thr]
B2: the “Blocking rate (Mean, %)” value in experiment [1] stood at 46%. Further, the “Mean (relative fluorescence intensity)” value in experiment [2] is 0.52 ratio to negative control. In addition, the half-inhibitory concentration (IC50) in experiment [3] turned out to be 5.96 µM.

B3: SEQ ID NO: 50 (peptide)
peptide: YRVRFLAKENVTQDAEDN
notes: Printed as 'Without modification'; also called Positive control group
B3: in experiment [1], the “Blocking rate (Mean, %)” value is 23.4%. The “Mean (relative fluorescence intensity)” value in experiment [2] was 0.84 ratio to negative control. This molecule also displayed a 50% inhibitory concentration (IC50) in experiment [3] of 10.6 µM.

For the molecule Ac-TQDAED-NH2 [SEQ ID NO: 04], the “Mean (relative fluorescence intensity)” value in experiment [2] was 0.77 ratio to negative control.

On to TQDAEDNK (lactam 3-8) [SEQ ID NO: 42], for which the “Mean (relative fluorescence intensity)” value in experiment [2] was 0.67 ratio to negative control.

Turning to Ac-TQDAEDN-NH2 (also called TQDAEDN) [SEQ ID NO: 06], the “Blocking rate (Mean, %)” value in experiment [1] is 17.7%. Moreover, in experiment [2], the “Mean (relative fluorescence intensity)” value was 0.65 ratio to negative control. In experiment [3], this molecule showed an IC50 of 12.7 µM.

For Ac-TQDPEDN-NH2 (also called TQDPEDN) [SEQ ID NO: 14], the “Blocking rate (Mean, %)” value in experiment [1] was 27.9%. Further, the “Mean (relative fluorescence intensity)” value in experiment [2] was 0.7 ratio to negative control. This molecule also displayed an IC50 in experiment [3] of 4.76 µM.

As for TQDPEDN (Head-to-tail cyclization) [SEQ ID NO: 41], the “Mean (relative fluorescence intensity)” value in experiment [2] was 0.62 ratio to negative control.

As to Ac-TQDAEDNTQD-NH2 [SEQ ID NO: 49], the “Blocking rate (Mean, %)” value in experiment [1] was found to be 30.2%. Besides, in experiment [3], the 50% inhibitory concentration (IC50) stood at 10.1 µM.

As to Ac-TQDAEDNTV-NH2 [SEQ ID NO: 17], in experiment [2], the “Mean (relative fluorescence intensity)” value was 0.78 ratio to negative control.

Regarding Ac-TQDAEDNTASH-NH2 [SEQ ID NO: 33], the “Blocking rate (Mean, %)” value in experiment [1] turned out to be 21.4%. Also, the “Mean (relative fluorescence intensity)” value in experiment [2] is 0.67 ratio to negative control. Besides, the 50% inhibitory concentration (IC50) in experiment [3] was determined as 14.3 µM.

Ac-QDAEDNTAS-NH2 [SEQ ID NO: 23]: the “Blocking rate (Mean, %)” value in experiment [1] came to 22.8%. In experiment [3], the IC50 stood at 22.9 µM.

As for Ac-TQDAEDNTASF-NH2 [SEQ ID NO: 31], the “Mean (relative fluorescence intensity)” value in experiment [2] was 0.79 ratio to negative control.

For Ac-TQDPAED-NH2 [SEQ ID NO: 47], the “Mean (relative fluorescence intensity)” value in experiment [2] is 0.8 ratio to negative control.

Ac-QDAEDN-NH2 [SEQ ID NO: 05]: the “Mean (relative fluorescence intensity)” value in experiment [2] was 0.83 ratio to negative control.

Turning to Ac-TQDAEDNTAS-NH2 [SEQ ID NO: 24], the “Blocking rate (Mean, %)” value in experiment [1] amounted to 32.6%. In addition, in experiment [2], the “Mean (relative fluorescence intensity)” value is 0.57 ratio to negative control. Further, the IC50 in experiment [3] is 10.6 µM.

As to Ac-TQDPEDNTAS-NH2 [SEQ ID NO: 26], the “Blocking rate (Mean, %)” value in experiment [1] came to 53.8%. Moreover, the “Mean (relative fluorescence intensity)” value in experiment [2] was 0.68 ratio to negative control. This molecule had an IC50 in experiment [3] of 3.4 µM.

On to Ac-TQDAEDPTAS-NH2 [SEQ ID NO: 25], for which the “Blocking rate (Mean, %)” value in experiment [1] was 33%. For the same molecule, the “Mean (relative fluorescence intensity)” value in experiment [2] was 0.73 ratio to negative control. Also, in experiment [3], the 50% inhibitory concentration (IC50) stood at 7.4 µM.

As for TQDPEDNTAS (Head-to-tail cyclization, cyclic peptide) [SEQ ID NO: 46], the “Blocking rate (Mean, %)” value in experiment [1] worked out at 56.1%. Moreover, the “Mean (relative fluorescence intensity)” value in experiment [2] is 0.69 ratio to negative control. Also, the IC50 in experiment [3] amounted to 1.4 µM.

Turning to Ac-TQDAEDNT-NH2 [SEQ ID NO: 15], the “Blocking rate (Mean, %)” value in experiment [1] worked out at 30.6%. This molecule came in with an IC50 in experiment [3] of 5.65 µM.

On to Ac-TQDPED-NH2 [SEQ ID NO: 03], for which the “Mean (relative fluorescence intensity)” value in experiment [2] is 0.7 ratio to negative control.

For the molecule Ac-TQDPAEDN-NH2 [SEQ ID NO: 48], the “Blocking rate (Mean, %)” value in experiment [1] turned out to be 29.7%. In experiment [3], this molecule returned a concentration for half-maximal inhibition (IC50) of 11.7 µM.
